In data set [1] the target is T1, caspase-3 (Homo sapiens, UniProt P42574).
T1 sequence (P42574 29-175 limits assumed): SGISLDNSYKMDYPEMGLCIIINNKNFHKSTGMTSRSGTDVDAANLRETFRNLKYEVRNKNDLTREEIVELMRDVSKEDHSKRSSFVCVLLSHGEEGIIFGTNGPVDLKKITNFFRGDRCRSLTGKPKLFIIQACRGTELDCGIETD
T1 sequence (P42574 176-277 limits assumed): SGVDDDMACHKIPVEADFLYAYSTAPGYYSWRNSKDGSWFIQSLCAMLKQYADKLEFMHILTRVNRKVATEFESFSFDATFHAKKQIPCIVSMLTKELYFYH
Briefly: Caspase-3 bioluminescent assay with L27V and PBI-3741. It counts as biochemical. Particulars: luminescence, 3 hrs at room temperature. Here is the method: (§1) 2. The L27V variant was used in a bioluminescent assay using a pro-coelenterazine substrate comprising the DEVD caspase-3 cleavage sequence “DEVD” disclosed as SEQ ID NO: 581). Purified caspase-3 enzyme (1 mg/mL) in 100 mM MES pH 6 (50 μL) was mixed with 227 nM L27V02 variant and 47 μM PBI-3741 (z-DEVD-coelenterazine-h (“DEVD” disclosed as SEQ ID NO: 581)) in assay buffer (50 μL). Reactions were incubated for 3 hrs at room temperature, and luminescence detected as previously described. The assay with the L27V variant was compared to a firefly luciferase version of the assay, CASPASE-GLO® 3/7-Assay system (Caspase-Glo; Promega Corp.).

Data set [2] relates to caspase-3. The description is as above. It is filed as biochemical. The following applies: luminescence, 3 hrs at room temperature. Here is the method: as §1
The nature of data set [3]: Exposure of L27V to 3 M urea. It is filed as physicochemical. The following applies: 30 min at 25° C. Here is the method:
A 0.31 mg/mL stock of purified L27V variant was diluted 100,000-fold into buffer (PBS+1 mM DTT+0.005% IGEPAL) and incubated with 3 M urea for 30 min at 25° C. and then mixed 1:1 (50 μL+50 μL) with an assay reagent containing 100 μM PBI-3939 (previously described). The reactions were read on a TECAN® INFINITE® F500 luminometer as described previously (for 100 min; 1 min read intervals) (FIG. 89).

The nature of data set [4]: Brightness of purified OgLuc variant compared to firefly luciferase. It is filed as biochemical. Here is the method:
The 9B8 OgLuc variant was overexpressed and purified as described in Example 33. Reactions between diluted enzyme and substrate were performed using the following 2× buffer/assay reagent: 100 mM MES pH 6.0, 1 mM CDTA, 150 mM KCl, 35 mM thiourea, 2 mM DTT, 0.25% TERGITOL® NP-9 (v/v), 0.025% MAZU® DF 204, 10 mg/mL […], and 20 μM PBI-3939. The final assay concentrations of purified enzyme and substrate were 0.5 pM and […], respectively. In parallel, reactions between diluted purified firefly luciferase (i.e., QUANTILUM® Recombinant Luciferase (Promega Corp.)) and luciferin were analyzed. The assay buffer/reagent for the firefly luciferase reaction was BRIGHT-GLO™, and the final assay concentrations were 0.5 pM enzyme and 500 μM luciferin. As the buffers/reagents for each reaction were known to provide “glow” kinetics, a 15 min time point was used to collect luminescence data.

The target of data set [5] is T1, caspase-3. In words: Caspase-3 bioluminescent assay with 9B8 opt and z-DEVD-coelenterazine-h. It counts as biochemical. Here is the method:
1. […] Purified caspase-3 enzyme was mixed with an E. coli lysate sample expressing the variant 9B8 opt, which was prepared as described in Example 27, and diluted 10-fold in a buffer containing 100 mM MES pH 6.0, 1 mM CDTA, 150 mM KCl, 35 mM thiourea, 2 mM DTT, 0.25% TERGITOL® NP-9 (v/v), 0.025% MAZU® DF 204, with or without 23.5 μM z-DEVD-coelenterazine-h in 100 mM HEPES pH 7.5 (“DEVD” disclosed as SEQ ID NO: 581). The caspase-3 enzyme was incubated with the lysate sample for 3 hrs at room temperature, and luminescence detected on a Turner MODULUS™ luminometer at various time points. A sample containing only bacterial lysate and a sample containing only caspase-3 were used as controls. Three replicates were used.

B1: L27V: 9B8 opt+K33N variant with L27V, T39T, K43R, Y68D (protein)
chain: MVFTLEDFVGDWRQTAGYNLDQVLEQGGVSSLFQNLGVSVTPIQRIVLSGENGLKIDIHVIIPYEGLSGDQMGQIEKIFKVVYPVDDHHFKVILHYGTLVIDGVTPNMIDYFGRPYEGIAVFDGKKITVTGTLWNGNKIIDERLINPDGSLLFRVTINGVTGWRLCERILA
Turning to B1, in the data set with caspase-3 [1], the “(+) caspase” value is on record as 11,532. For the same molecule, the “(−) caspase” value in the data set on caspase-3 [2] is reported as 803. Besides, in data set [3], the “reduction of activity by 3M urea” value was “approximately 50%”.

B2: 9B8 opt: codon optimized version of the 9B8 variant (protein)
chain: MVFTLEDFVGDWRQTAGYNLDQVLEQGGLSSLFQKLGVSVTPIQKIVLSGENGLKIDIHVIIPYEGLSGYQMGQIEKIFKVVYPVDDHHFKVILHYGTLVIDGVTPNMIDYFGRPYEGIAVFDGKKITVTGTLWNGNKIIDERLINPDGSLLFRVTINGVTGWRLCERILA
For the molecule B2, in data set [4], the “brightness relative to QUANTILUM Recombinant Luciferase with BRIGHT-GLO” value is given as “approximately 8 fold”. Further, the luminescence in data set [4] (0.5 pM enzyme, 15 min, 9B8 opt with PBI-3939, QUANTILUM with BRIGHT-GLO) is listed as 19,200 RLU. For the same molecule, the “+ caspase (RLU)” value with caspase-3 [5] (5 min, z-DEVD-coelenterazine-h) is listed as 25,411 RLU; with caspase-3 [5] (15.3 min) it was 36,906 RLU; in the data set with caspase-3 [5] (29.9 min), 41,854 RLU; with caspase-3 [5] (60.9 min), 43,370 RLU; with caspase-3 [5] (190.3 min), 42,448 RLU. Further, the “no caspase (RLU)” value was 26,023 RLU with caspase-3 [5] (5 min, z-DEVD-coelenterazine-h); 7,707 RLU with caspase-3 [5] (15.3 min); 4,013 RLU with caspase-3 [5] (29.9 min); 2,305 RLU with caspase-3 [5] (60.9 min); 1,155 RLU with caspase-3 [5] (190.3 min).

Source of the values: patent publication US8809529B2, “Imidazo[1,2-α]pyrazine derivatives” (Promega Corporation, priority 2010, dated 2014).
